The target in the assay is recombinant SARS-CoV-2 RBD (His-tagged SARS-CoV-2 RBD fusion protein) (SARS-CoV-2, UniProt P0DTC2 328-585). The assay can be described thus: ELISA. On the technique in general: An ELISA detects its analyte on a solid surface through an enzyme-linked reagent.

B1: Dectin-2.Fc (CLEC6A) protein (Fc fusion)
chain: TYHFTYGETGKRLSELHSYHSSLTCFSEGTKVPAWGCCPASWKSFGSSCYFISSEEKVWSKSEQNCVEMGAHLVVFNTEAEQNFIVQQLNESFSYFLGLSDPQGNNNWQWIDKTPYEKNVRFWHLGEPNHSAEQCASIVFWKPTGWGWNDVICETRRNSICEMNKIYL
Regarding B1, the binding result is listed as “no binding (tested: 50 µg/ml)”.

B2: Dectin-1.Fc (CLEC7A) protein (Fc fusion)
chain: TMAIWRSNSGSNTLENGYFLSRNKENHSQPTQSSLEDSVTPTKAVKTTGVLSSPCPPNWIIYEKSCYLFSMSLNSWDGSKRQCWQLGSNLLKIDSSNELGFIVKQVSSQPDNSFWIGLSRPQTEVPWLWEDGSTFSSNLFQIRTTATQENPSPNCVWIHVSVIYDQLCSVPSYSICEKKFSM
Consider B2, for which the binding result was “no binding (tested: 50 µg/ml)”.

B3: CLEC5A.Fc protein (Fc fusion)
chain: PQIFNKSNDGFTTTRSYGTVSQIFGSSSPSPNGFITTRSYGTVCPKDWEFYQARCFFLSTSESSWNESRDFCKGKGSTLAIVNTPEKLKFLQDITDAEKYFIGLIYHREEKRWRWINNSVFNGNVTNQNQNFNCATIGLTKTFDAASCDISYRRICEKNAK
For B3, the binding result is given as “no binding (tested: 50 µg/ml)”.

B4: Mincle.Fc (CLEC4F) protein (Fc fusion)
chain: RCVVTFRIFQTCDEKKFQLPENFTELSCYNYGSGSVKNCCPLNWEYFQSSCYFFSTDTISWALSLKNCSAMGAHLVVINSQEEQEFLSYKKPKMREFFIGLSDQVVEGQWQWVDGTPLTKSLSFWDVGEPNNIATLEDCATMRDSSNPRQNWNDVTCFLNYFRICEMVGINPLNKGKSL
As for B4, the binding result is “no binding (tested: 50 µg/ml)”.

The record behind these values is US20230365640A1 (ACADEMIA SINICA, published 2023).
